Substrate in the data set: NCCc1ccccc1
In words: Platelet monoamine oxidase (MAO) assay, deamination of 14C-PEA. It counts as biochemical, human. The conditions noted are these: other: platelets of control subjects; varying PEA; mean±SEM, n=6; 37.0 °C. The protocol:
Platelets were prepared from whole blood (20 ml) which was obtained by venipuncture from healthy volunteers and alcoholic subjects. After standing at room temperature for approximately three to four hours in citrate-phosphate-dextrose solution, each blood sample was centrifuged at 180×G for two minutes. The platelet-rich plasma (PRP) was carefully removed and platelet count was determined from aliquots (20 ul) of the PRP with a Coulter S-plus Thrombocounter. The PRP was centrifuged at 16,000 g for ten minutes. The pellet was resuspended in 50 ml of cold 50 mM Tris-HCl, pH 7.5, containing […] NaCl and 20 mM ethylene diamine tetraacetic acid (EDTA). The centrifugation was repeated twice, and the final pellet was resuspended in 1 ml of cold 5 mM Tris-HCl, pH 7.5, containing 5 mM EDTA. Suspensions were rapidly frozen at -70° C., and samples were stored at -70° C. for no longer than four weeks prior to assay.
To measure the deamination of ^14 C-PEA, assay mixtures (total volume, 0.3 ml) contained approximately 15 ug of platelet protein. Reactions were carried out in 0.1 M sodium phosphate, pH 7.4, at 37° C. […] Two additional ml of water and 20 ml of scintillation fluid were added to each vial, and radioactivity was determined in a liquid scintillation spectrometer. […]

For orientation: Km means the concentration of substrate that gives half-maximal velocity.

B1: platelet monoamine oxidase (MAO) (Homo sapiens) (protein)
chain: MSNKCDVVVVGGGISGMAAAKLLHDSGLNVVVLEARDRVGGRTYTLRNQKVKYVDLGGSYVGPTQNRILRLAKELGLETYKVNEVERLIHHVKGKSYPFRGPFPPVWNPITYLDHNNFWRTMDDMGREIPSDAPWKAPLAEEWDNMTMKELLDKLCWTESAKQLATLFVNLCVTAETHEVSALWFLWYVKQCGGTTRIISTTNGGQERKFVGGSGQVSERIMDLLGDRVKLERPVIYIDQTRENVLVETLNHEMYEAKYVISAIPPTLGMKIHFNPPLPMMRNQMITRVPLGSVIKCIVYYKEPFWRKKDYCGTMIIDGEEAPVAYTLDDTKPEGNYAAIMGFILAHKARKLARLTKEERLKKLCELYAKVLGSLEALEPVHYEEKNWCEEQYSGGCYTTYFPPGILTQYGRVLRQPVDRIYFAGTETATHWSGYMEGAVEAGERAAREILHAMGKIPEDEIWQSEPESVDVPAQPITTTFLERHLPSVPGLLRLIGLTTIFSATALGFLAHKRGLLVRV
notes: contained approximately 15 ug of platelet protein; from tissue; host or cells: platelets (membranes) from whole blood of volunteers and alcoholic subjects
Take B1: the Michaelis constant (Km) came to 1.4 ± 0.2 µM and the Vmax is on record as 508±37 pmole/mg protein/minute.

The values are drawn from patent US4770996A, “Identification of individuals predisposed toward alcohol abuse” (priority 1986, dated 1988).
